Where no end group is shown, it is not given here.
T1: junctional peptide P21 (NPDPNANPNVDPNAN) (Plasmodium falciparum, also: biotin, end not given here)
T1 construct: junctional 15-mer peptide of PfCSP; Biotinylated, held on streptavidin-coated plates in the ELISA; Probably a synthetic peptide (surmise); also called peptide 21
T1 chain: NPDPNANPNVDPNAN

T2: major repeat peptide P29 (NANPNANPNANPNAN) (Plasmodium falciparum, also: biotin, end not given here)
T2 construct: major repeat 15-mer peptide of PfCSP; Biotinylated, held on streptavidin-coated plates in the ELISA; Probably a synthetic peptide (surmise)
T2 chain: NANPNANPNANPNAN


Columns and labels:
Test in all cases: ELISA; biotinylated P21 or P29 (2 ug/ml) on streptavidin-coated plates, PfCSP (2 ug/ml) coated on high-binding plates; 100 ul RATPIg supernatant, 1 h at room temperature; peroxidase goat anti-mouse IgG, OD450
Conditions in all cases: one partner purified
[1] = biological target: T1, junctional peptide P21 (NPDPNANPNVDPNAN)
[2] = biological target: T2, major repeat peptide P29 …
[3] = biological target: T3, Plasmodium falciparum circumsporozoite protein (PfCSP), full-length (Plasmodium falciparum, 3D7 (strain not …, UniProt Q7K740))
T3 construct: Plasmodium falciparum circumsporozoite protein, called full-length; recombinant 'full-length' PfCSP may lack the signal peptide and the GPI anchor signal (surmise); also called flCSP
T3 sequence (Q7K740 19-374): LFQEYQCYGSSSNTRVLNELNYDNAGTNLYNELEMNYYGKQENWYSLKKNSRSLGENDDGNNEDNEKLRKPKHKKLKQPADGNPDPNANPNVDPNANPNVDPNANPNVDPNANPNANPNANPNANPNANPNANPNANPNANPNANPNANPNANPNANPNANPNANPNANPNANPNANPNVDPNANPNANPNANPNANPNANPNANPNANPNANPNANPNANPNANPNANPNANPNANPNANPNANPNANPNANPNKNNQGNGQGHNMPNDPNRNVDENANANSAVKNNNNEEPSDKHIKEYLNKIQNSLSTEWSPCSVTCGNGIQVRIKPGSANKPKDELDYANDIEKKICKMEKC

Binder	binding result [1]	binding result [2]	binding result [3]
P21/P29 double binder of mouse 5147 (PADRE-LuS-3T-immunized mouse) (antibody, V domains shown, Expressed IgG from a single sorted B cell; source: Expi293, transfected with RATP-Ig cassettes, in culture supernatant) VH: DVQLQESGPGLVKPSQSLSLTCSVTGYSITSGYYWNWIRQFPGNKLEWMGYISYDGSNNYNPSLKNRISITRDTSKNQFFLKLNSVTTEDTATYYCARDDYDGFDYWGQGTTLTVSS VL: DIQMTQSPSSLSASLGGKVTITCKASQDINKYIAWYQHKPGKGPRLLIHYTSTLQPGIPSRFSGSGSGRDYSFSISNLEPEDIATYYCLQYDNLWTFGGGTKLEIK	binds	binds	–
one strong P29-binding antibody of R21-immunized mouse 5116 (antibody, V domains shown, Expressed IgG from a single sorted B cell; source: Expi293, transfected with RATP-Ig cassettes, in culture supernatant) VH: QVQLQQSGAELARPGASVKLSCKASGYTFTSYAISWVKQRTGQGLEWIGEIYPRSGNIYYNEKFKGKATLTADKSSSTAYMELRSLTSEDSAVYFCARRGDVYFGGYWGQGTTLTVSS VL: DIVMTQSHKFMSTSVGDRVIITCKASQDVGTAVVWYQQKPGQSPKLLIYWASTRHTGVPDRFTGSGSGTDFTLTISNVQSEDLADYFCQQYNSYPLTFGAGTKLELK	–	binds	–
one strong PfCSP-binding antibody of R21-immunized mouse 5116 (antibody, V domains shown, Expressed IgG from a single sorted B cell; source: Expi293, transfected with RATP-Ig cassettes, in culture supernatant) VH: QIQLLQSGPELVKPGASVRISCKASGYTLTDHYINWVKQRPGQGLEWIGWIYPGSAEIKFNEKFKGKASLTVDTSSSTAYMQLSSLTSEDSAVYFCARSGYGGLDYWGQGSTLTVSS VL: DLGMTQSHKFMSTSVGDRVTITCKASQDVGTAVAWYQQKPGQSPKLLIYWASTRHTGVPDRFTGSGSGTDFTLTITNVQSEDLADYFCQQFTIYPWTFGGGTKLEIK	–	–	binds

From paper PMC13324253 (NPJ Vaccines, 2026)
